Source: patent publication US20110280859A1 (UNIVERSITY OF ROCHESTER, published 2011)

Legend:
[1] = target: β3 integrins on human neutrophils (human, UniProt P05106 27-788); experiment: cell-based or functional assay
[2] = target: β1 integrins on human neutrophils (human, UniProt P05556 21-798); experiment: cell-based or functional assay
β1 integrins on human neutrophils, sequence (P05556 21-798): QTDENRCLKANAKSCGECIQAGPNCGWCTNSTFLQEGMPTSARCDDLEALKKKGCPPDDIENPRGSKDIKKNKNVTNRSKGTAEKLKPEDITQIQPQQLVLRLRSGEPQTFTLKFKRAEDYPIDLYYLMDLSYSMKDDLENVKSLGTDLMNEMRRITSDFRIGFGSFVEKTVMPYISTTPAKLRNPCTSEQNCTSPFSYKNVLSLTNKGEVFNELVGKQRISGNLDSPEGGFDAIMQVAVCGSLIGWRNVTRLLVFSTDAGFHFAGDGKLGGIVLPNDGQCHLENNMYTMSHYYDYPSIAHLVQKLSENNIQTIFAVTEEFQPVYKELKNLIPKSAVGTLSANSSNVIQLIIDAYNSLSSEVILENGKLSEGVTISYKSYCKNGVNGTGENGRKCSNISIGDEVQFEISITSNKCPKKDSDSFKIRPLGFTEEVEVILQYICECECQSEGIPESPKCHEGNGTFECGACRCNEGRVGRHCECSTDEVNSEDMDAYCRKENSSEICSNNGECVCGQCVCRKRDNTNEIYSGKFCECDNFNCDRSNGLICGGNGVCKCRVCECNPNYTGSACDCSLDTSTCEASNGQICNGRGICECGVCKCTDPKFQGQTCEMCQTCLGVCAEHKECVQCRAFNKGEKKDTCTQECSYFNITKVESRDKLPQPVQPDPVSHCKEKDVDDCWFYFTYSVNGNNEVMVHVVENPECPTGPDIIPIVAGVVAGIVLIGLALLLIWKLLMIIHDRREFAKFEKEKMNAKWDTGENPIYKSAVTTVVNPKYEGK

β3 integrins on human neutrophils, sequence (P05106 27-788): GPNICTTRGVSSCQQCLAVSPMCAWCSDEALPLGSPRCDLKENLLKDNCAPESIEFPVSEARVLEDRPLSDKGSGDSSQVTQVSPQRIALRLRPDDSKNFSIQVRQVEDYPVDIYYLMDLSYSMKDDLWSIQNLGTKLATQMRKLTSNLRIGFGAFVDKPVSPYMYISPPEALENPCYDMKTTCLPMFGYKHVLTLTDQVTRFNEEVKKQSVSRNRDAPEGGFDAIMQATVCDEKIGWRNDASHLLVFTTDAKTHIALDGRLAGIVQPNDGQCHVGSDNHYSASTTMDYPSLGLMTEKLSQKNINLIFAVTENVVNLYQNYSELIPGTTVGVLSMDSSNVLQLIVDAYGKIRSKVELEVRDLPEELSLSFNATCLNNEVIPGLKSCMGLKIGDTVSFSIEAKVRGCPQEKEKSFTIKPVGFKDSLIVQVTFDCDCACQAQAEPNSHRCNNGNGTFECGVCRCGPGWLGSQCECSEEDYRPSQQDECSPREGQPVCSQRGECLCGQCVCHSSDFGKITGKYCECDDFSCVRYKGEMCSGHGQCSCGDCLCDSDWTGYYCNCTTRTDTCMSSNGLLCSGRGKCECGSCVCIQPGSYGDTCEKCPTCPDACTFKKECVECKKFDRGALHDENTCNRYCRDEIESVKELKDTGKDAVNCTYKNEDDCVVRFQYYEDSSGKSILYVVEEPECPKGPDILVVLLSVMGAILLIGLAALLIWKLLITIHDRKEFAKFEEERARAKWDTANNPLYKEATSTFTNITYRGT

B1: Recombinant human activated protein C (enzyme)
chain 1: ANSFLEELRHSSLERECIEEICDFEEAKEIFQNVDDTLAFWSKHVDGDQCLVLPLEHPCASLCCGHGTCIDGIGSFSCDCRSGWEGRFCQREVSFLNCSLDNGGCTHYCLEEVGWRRCSCAPGYKLGDDLLQCHPAVKFPCGRPWKRMEKKRSHL
chain 2: LIDGKMTRRGDSPWQVVLLDSKKKLACGAVLIHPSWVLTAAHCMDESKKLLVRLGEYDLRRWEKWELDLDIKEVFVHPNYSKSTTDNDIALLHLAQPATLSQTIVPICLPDSGLAERELNQAGQETLVTGWGYHSSREKEAKRNRTFVLNFIKIPVVPHNECSEVMSNMVSENMLCAGILGDRQDACEGDSGGPMVASFHGTWFLVGLVSWGEGCGLLHNYGVYTKVSRYLDWIHGHIRDKEAPQKSWAP
average lateral migration speed (S) of neutrophils on FN toward fMLP, micropipette assay [1]: 2.5 fold
average lateral migration speed (S) of neutrophils on FN toward fMLP, micropipette assay [2]: 2.5 fold
